Consider one substance from EP1007561B1.

For the assay, the target named is opiate receptors of rat brain homogenate ([3H]-Naloxone binding sites, non-selective binding assay) (rat). In words: displacement of 1.0 nM [3H]-Naloxone from rat brain homogenate, filtration; compound at 10 nM.

In the case of “CCI-H (20% HSA•MPA-AEA3-Dyn A 2-17-NH2) (from UniProt P02768 25-609)”, the % INHIBITION AT 10 nM was found to be 1.28%.
